Laboratory results: paper PMC6550315
Read-outs that look alike come from different tables or passages of the source. One block for each molecule: values may come before it.

What was measured:
[1] = target: GTP-polymerized Taxol-stabilized microtubules (bovine tubulin) (bovine) (UniProt Q6B856); experiment: co-sedimentation
[2] = target: Kif7DM (dimeric, non GFP-tagged Kif7, aa. 1–543), held on an anti-penta-HIS biosensor (human) (UniProt Q2M1P5); experiment: BLI
[3] = target: Kif7DM (dimeric, non GFP-tagged Kif7, aa. 1–543), held on an anti-penta-HIS biosensor (human) (UniProt Q2M1P5); experiment: BLI; remark: listed apart in the source
[4] = target: Kif7DM (dimeric, non GFP-tagged Kif7, aa. 1–543), held on an anti-penta-HIS biosensor (human) (UniProt Q2M1P5); experiment: BLI; remark: listed apart in the source
[5] = target: GTP-polymerized Taxol-stabilized microtubules (bovine tubulin) (bovine) (UniProt Q6B856); experiment: co-sedimentation; remark: listed apart in the source
[6] = target: GMPCPP-stabilized microtubules (GMPCPP-bound microtubule seeds) (bovine (lab-purified from bovine brain; Cytoskeleton tubulin used interchangeably)) (UniProt Q6B856); experiment: TIRF microscopy
[7] = target: GDP-tubulin microtubule segment (GTP►GDP growth) (bovine (lab-purified from bovine brain; Cytoskeleton tubulin used interchangeably)) (UniProt Q6B856); experiment: TIRF microscopy
[8] = target: GMPCPP+GDP microtubule cap (bovine (lab-purified from bovine brain; Cytoskeleton tubulin used interchangeably)) (UniProt Q6B856); experiment: TIRF microscopy
[9] = target: GTP-polymerized Taxol-stabilized microtubules (bovine tubulin) (bovine) (UniProt Q6B856); experiment: co-sedimentation; remark: listed apart in the source
[10] = target: GMPCPP-stabilized microtubules (GMPCPP-bound microtubule seeds) (bovine (lab-purified from bovine brain; Cytoskeleton tubulin used interchangeably)) (UniProt Q6B856); experiment: TIRF microscopy; remark: listed apart in the source
[11] = target: GDP-tubulin microtubule segment (GTP►GDP growth) (bovine (lab-purified from bovine brain; Cytoskeleton tubulin used interchangeably)) (UniProt Q6B856); experiment: TIRF microscopy; remark: listed apart in the source
[12] = target: GMPCPP+GDP microtubule cap (bovine (lab-purified from bovine brain; Cytoskeleton tubulin used interchangeably)) (UniProt Q6B856); experiment: TIRF microscopy; remark: listed apart in the source
[13] = target: GMPCPP-stabilized microtubules (GMPCPP-bound microtubule seeds) (bovine (lab-purified from bovine brain; Cytoskeleton tubulin used interchangeably)) (UniProt Q6B856); experiment: TIRF microscopy; remark: listed apart in the source
[14] = target: GDP-tubulin microtubule segment (GTP►GDP growth) (bovine (lab-purified from bovine brain; Cytoskeleton tubulin used interchangeably)) (UniProt Q6B856); experiment: TIRF microscopy; remark: listed apart in the source
[15] = target: GMPCPP+GDP microtubule cap (bovine (lab-purified from bovine brain; Cytoskeleton tubulin used interchangeably)) (UniProt Q6B856); experiment: TIRF microscopy; remark: listed apart in the source
[16] = target: GTPγS microtubule segment (bovine (lab-purified from bovine brain; Cytoskeleton tubulin used interchangeably)) (UniProt Q6B856); experiment: TIRF microscopy
[17] = target: GMPCPP-stabilized microtubules (GMPCPP-bound microtubule seeds) (bovine (lab-purified from bovine brain; Cytoskeleton tubulin used interchangeably)) (UniProt Q6B856); experiment: TIRF microscopy; remark: listed apart in the source
[18] = target: GTP-polymerized Taxol-stabilized microtubules (bovine tubulin) (bovine) (UniProt Q6B856); experiment: co-sedimentation; remark: listed apart in the source
[19] = target: GMPCPP-stabilized microtubules (GMPCPP-bound microtubule seeds) (bovine (lab-purified from bovine brain; Cytoskeleton tubulin used interchangeably)) (UniProt Q6B856); experiment: TIRF microscopy; remark: listed apart in the source
[20] = target: GDP-tubulin microtubule segment (GTP►GDP growth) (bovine (lab-purified from bovine brain; Cytoskeleton tubulin used interchangeably)) (UniProt Q6B856); experiment: TIRF microscopy; remark: listed apart in the source
[21] = target: GMPCPP+GDP microtubule cap (bovine (lab-purified from bovine brain; Cytoskeleton tubulin used interchangeably)) (UniProt Q6B856); experiment: TIRF microscopy; remark: listed apart in the source
[22] = target: GMPCPP-stabilized microtubules (GMPCPP-bound microtubule seeds) (bovine (lab-purified from bovine brain; Cytoskeleton tubulin used interchangeably)) (UniProt Q6B856); experiment: TIRF microscopy; remark: listed apart in the source

Kd [1]: 850 nM
Molecule: Kif7_(DM-L8)^KHC-GFP (Kif7 1–543 with loop L8 replaced by kinesin-1 L8) (from UniProt Q2M1P5 1-543) (domain or fragment)

Kd [2]: 1640 nM
Kd [3]: 8100 nM
Kd [4]: 4980 nM
Molecule: soluble tubulin (α-β-tubulin heterodimer) (from UniProt Q6B856 1-445) (complex)

Kd [5]: 780 nM
Kd [1]: 540 nM
GFP fluorescence intensity per pixel [6]: 693
GFP fluorescence intensity per pixel [7]: 216
GFP fluorescence intensity per pixel [8]: 401
Kd [9]: 430 nM
GFP fluorescence intensity per pixel [10]: 202
GFP fluorescence intensity per pixel [11]: 14.1
GFP fluorescence intensity per pixel [12]: 80.8
GFP fluorescence intensity per pixel [13]: 592
GFP fluorescence intensity per pixel [14]: 208
GFP fluorescence intensity per pixel [15]: 338
GFP fluorescence intensity per pixel [16]: 511
GFP fluorescence intensity at curvature |κ0|, 10 nM Kif7DM-GFP [17]: 164
GFP fluorescence intensity at curvature |κ0|, 50 nM Kif7DM-GFP [17]: 278
GFP fluorescence intensity at curvature |κ1|, 10 nM Kif7DM-GFP [17]: 168
GFP fluorescence intensity at curvature |κ1|, 50 nM Kif7DM-GFP [17]: 285
GFP fluorescence intensity at curvature |κ2|, 10 nM Kif7DM-GFP [17]: 168
GFP fluorescence intensity at curvature |κ2|, 50 nM Kif7DM-GFP [17]: 280
GFP fluorescence intensity at curvature |κ3|, 10 nM Kif7DM-GFP [17]: 164
GFP fluorescence intensity at curvature |κ3|, 50 nM Kif7DM-GFP [17]: 283
GFP fluorescence intensity per pixel [17]: 218
Kd [18]: 810 nM
GFP fluorescence intensity per pixel [19]: 53
GFP fluorescence intensity per pixel [20]: 8.6
GFP fluorescence intensity per pixel [21]: 37.1
GFP fluorescence intensity per pixel [22]: 836
B1: Kif7DM-GFP (dimeric Kif7, aa. 1–543, C-terminal GFP) (domain or fragment)
chain: MGLEAQRLPGAEEAPVRVALRVRPLLPKELLHGHQSCLQVEPGLGRVTLGRDRHFGFHVVLAEDAGQEAVYQACVQPLLEAFFEGFNATVFAYGQTGSGKTYTMGEASVASLLEDEQGIVPRAMAEAFKLIDENDLLDCLVHVSYLEVYKEEFRDLLEVGTASRDIQLREDERGNVVLCGVKEVDVEGLDEVLSLLEMGNAARHTGATHLNHLSSRSHTVFTVTLEQRGRAPSRLPRPAPGQLLVSKFHFVDLAGSERVLKTGSTGERLKESIQINSSLLALGNVISALGDPQRRGSHIPYRDSKITRILKDSLGGNAKTVMIACVSPSSSDFDETLNTLNYASRAQNIRNRATVNWRPEAERPPEETASGARGPPRHRSETRIIHRGRRAPGPATASAAAAMRLGAECARYRACTDAAYSLLRELQAEPGLPGAAARKVRDWLCAVEGERSALSSASGPDSGIESASVEDQAAQGAGGRKEDEGAQQLLTLQNQVARLEEENRDFLAALEDAMEQYKLQSDRLREQQEEMVELRLRLELVRP
